Data on three molecules can be found in patent US11054430B2, “Compounds and methods for the detection of methotrexate” (Defined Diagnostics, LLC, priority 2015, dated 2021).

Format in all cases: binding
Holding throughout (conditions): chemical spiked at 100 μM; calculated MTX concentration divided by 100 μM

Experiment [1] can be described thus: MTX antibody cross-reactivity with 7-OH-MTX (competitive assay). As to the method:
(§1) The 4 selected MTX antibodies, 10C7, 45C11, 6D4, 19A6, were evaluated for cross-reactivity with MTX metabolites and related compounds (7-OH-MTX, DAMPA, Folic Acid and Folinic Acid). The amount of cross-reactivity with each chemical is defined as the percent ratio of the calculated MTX concentration of the chemical divided by 100 μM, which was the spiked concentration of the chemical.

Experiment [2] can be described thus: MTX antibody cross-reactivity with DAMPA (competitive assay). The method, then:
as §1

The nature of experiment [3]: MTX antibody cross-reactivity with Folic Acid (competitive assay). The method, then:
as §1

A short description of experiment [4]: MTX antibody cross-reactivity with Folinic Acid (competitive assay). As to the method: as §1

B1: mAb 6D4: anti-methotrexate mouse monoclonal antibody; variable heavy chain SEQ ID NO:11, variable light chain SEQ ID NO:12 (antibody, V domains shown)
VH: QIQLVQSGPELKKPGETVKISCKASGYTFTNYGMNWVKRAPGKGLKWMGWINPYTGEPTYADDFKGRFAFSLETSASTAYLQINNLKNEDMATYFCARNDYYYALDSWGQGTSVTVSS
VL: DVVMTQSPLSLPVSLGDQASISCRSSQSLVKSNGNTYLHWFLQKSGQSPKLLIYKVSNRFSGVPDRFSGSGSGTDFTLKISRVEAEDLGVYFCSQSTHVPWTFGGGTKLEIK
modifications: mouse
For the molecule B1, in experiment [1], the “% Cross-Reactivity with 7-OH-MTX” value is 0.91%. Besides, in experiment [2], the “% Cross-Reactivity with DAMPA” value is 0.52%. The “% Cross-Reactivity with Folic Acid” value in experiment [3] is reported as 0.48%. Besides, the “% Cross-Reactivity with Folinic Acid” value in experiment [4] is 0.24%.

B2: mAb 19A6: anti-methotrexate mouse monoclonal antibody; variable heavy chain SEQ ID NO:7, variable light chain SEQ ID NO:8 (antibody, V domains shown)
VH: QIQLVQSGPELKRPGETVKISCKASGYTYTYYGINWLKQAPGKDLKWMGWINPYTGEPAYADDFKGRFAFSLETSATTTYLQINNLKNEDMATYFCARNSYYYALDYWGQGTSVTVSS
VL: DVVMTQTPLSLPVNLGDQASISCRSSQNLVKSNGNTYLHWFLQKPGQSPKLLIYKVSNRFSGVPDRFSGSGSGTDFTLKISRVEAEDLGVYFCSQSTHVPWTFGGGTKLEIK
modifications: mouse
As to B2, the “% Cross-Reactivity with 7-OH-MTX” value in experiment [1] was 0.76%. Also, the “% Cross-Reactivity with DAMPA” value in experiment [2] is 0.029%. Further, the “% Cross-Reactivity with Folic Acid” value in experiment [3] is reported as 0.073%. In experiment [4], the “% Cross-Reactivity with Folinic Acid” value is recorded as 0.11%.

B3: mAb 10C7: anti-methotrexate mouse monoclonal antibody; variable heavy chain SEQ ID NO:3, variable light chain SEQ ID NO:4 (antibody, V domains shown)
VH: EVQLVESGGGLVKPGGSLRLSCAASGFTFRTYAMSWVRQTPEKRLEWVATITSGGTYIYYLDSVKGRFTISRDNAKNVLYLQMSSLRSEDTAMYYCVRLYGYDGMDYWGQGTSVTVSA
VL: QAVVTQESALTTSPGETVTLTCRSSTGAVSTSNYVNWVQEKPDHLFTGLIGGTKNRVPGVPARFSGSLIGDKAALTITGAQTEDEAIYFCALWYTNHLVFGGGTKLTVL
modifications: mouse
For B3, in experiment [1], the “% Cross-Reactivity with 7-OH-MTX” value is listed as 0.37%. The “% Cross-Reactivity with DAMPA” value in experiment [2] was 0.43%. The “% Cross-Reactivity with Folic Acid” value in experiment [3] was 0.24%. Also, the “% Cross-Reactivity with Folinic Acid” value in experiment [4] is 0.28%.
